According to IntAct's records for PubMed 21703451:

B1: Transient receptor potential protein (Drosophila melanogaster (Fruit fly)), P19334 (parent)
chain: MGSNTESDAEKALGSRLDYDLMMAEEYILSDVEKNFILSCERGDLPGVKKILEEYQGTDKFNINCTDPMNRSALISAIENENFDLMVILLEHNIEVGDALLHAISEEYVEAVEELLQWEETNHKEGQPYSWEAVDRSKSTFTVDITPLILAAHRNNYEILKILLDRGATLPMPHDVKCGCDECVTSQMTDSLRHSQSRINAYRALSASSLIALSSRDPVLTAFQLSWELKRLQAMESEFRAEYTEMRQMVQDFGTSLLDHARTSMELEVMLNFNHEPSHDIWCLGQRQTLERLKLAIRYKQKTFVAHPNVQQLLAAIWYDGLPGFRRKQASQQLMDVVKLGCSFPIYSLKYILAPDSEGAKFMRKPFVKFITHSCSYMFFLMLLGAASLRVVQITFELLAFPWMLTMLEDWRKHERGSLPGPIELAIITYIMALIFEELKSLYSDGLFEYIMDLWNIVDYISNMFYVTWILCRATAWVIVHRDLWFRGIDPYFPREHWHPFDPMLLSEGAFAAGMVFSYLKLVHIFSINPHLGPLQVSLGRMIIDIIKFFFIYTLVLFAFGCGLNQLLWYYAELEKNKCYHLHPDVADFDDQEKACTIWRRFSNLFETSQSLFWASFGLVDLVSFDLAGIKSFTRFWALLMFGSYSVINIIVLLNMLIAMMSNSYQIISERADTEWKFARSQLWMSYFEDGGTIPPPFNLCPNMKMLRKTLGRKRPSRTKSFMRKSMERAQTLHDKVMKLLVRRYITAEQRRRDDYGITEDDIIEVRQDISSLRFELLEIFTNNNWDVPDIEKKSQGVARTTKGKVMERRILKDFQIGFVENLKQEMSESESGRDIFSSLAKVIGRKKTQKGDKDWNAIARKNTFASDPIGSKRSSMQRHSQRSLRRKIIEQANEGLQMNQTQLIEFNPNLGDVTRATRVAYVKFMRKKMAADEVSLADDEGAPNGEGEKKPLDASGSKKSITSGGTGGGASMLAAAALRASVKNVDEKSGADGKPGTMGKPTDDKKAGDDKDKQQPPKDSKPSAGGPKPGDQKPTPGAGAPKPQAAGTISKPGESQKKDAPAPPTKPGDTKPAAPKPGESAKPEAAAKKEESSKTEASKPAATNGAAKSAAPSAPSDAKPDSKLKPGAAGAPEATKATNGASKPDEKKSGPEEPKKAAGDSKPGDDAKDKDKKPGDDKDKKPGDDKDKKPADNNDKKPADDKDKKPGDDKDKKPGDDKDKKPSDDKDKKPADDKDKKPAAAPLKPAIKVGQSSAAAGGERGKSTVTGRMISGWL

Variants of: B1
Settings: with inad_drome inaD

Row | Variant | effect of a mutation on the interaction
1 | V1266A | decreasing interaction
2 | V1266A;W1274A | disrupting interaction
